Experimental data taken from patent US20210301025A1 (published 2021).
Positions count from the first letter of the chain named. Names may count otherwise.

Experiments:
[1] = target: T1, EGFR (form used in the assay not stated) (human, UniProt P00533 25-645, limits assumed); assay: ELISA, NEM conjugate, 100 nM
[2] = target: T1, EGFR (form used in the assay not stated); assay: ELISA, NEM conjugate, 500 nM
[3] = target: T1, EGFR (form used in the assay not stated); assay: ELISA, NEM conjugate, 10 nM

B1: P54AR4-83v2 G51C, NEM conjugate (designed binder, not shown: small tags and cut ends)
chain: LPAPKNLVVSEVTEDSARLSWDDPWAFYESFLIQYQESEKVGEAIVLTVPCSERSYDLTGLKPGTEYTVSIYGVHNVYKDTNMRGLPLSAIFTT
modifications: N-ethyl maleimide (NEM) on Cys 51
binding relative to P54AR4-83v2 parent [1]: 1.03 ratio
binding relative to P54AR4-83v2 parent [2]: 0.92 ratio
binding relative to P54AR4-83v2 parent [3]: 0.88 ratio

B2: P54AR4-83v2 G60C, NEM conjugate (designed binder, not shown: small tags and cut ends)
chain: B1 chain with C51G, G60C
modifications: N-ethyl maleimide (NEM) on Cys 60
binding relative to P54AR4-83v2 parent [1]: 1.02 ratio
binding relative to P54AR4-83v2 parent [2]: 0.93 ratio
binding relative to P54AR4-83v2 parent [3]: 0.86 ratio

B3: P54AR4-83v2 G64C, NEM conjugate (designed binder, not shown: small tags and cut ends)
chain: B1 chain with C51G, G64C
modifications: N-ethyl maleimide (NEM) on Cys 64
binding relative to P54AR4-83v2 parent [1]: 1.42 ratio
binding relative to P54AR4-83v2 parent [2]: 1.36 ratio
binding relative to P54AR4-83v2 parent [3]: 1.28 ratio

B4: P54AR4-83v2 G73C, NEM conjugate (designed binder, not shown: small tags and cut ends)
chain: B1 chain with C51G, G73C
modifications: N-ethyl maleimide (NEM) on Cys 73
binding relative to P54AR4-83v2 parent [1]: 0.02 ratio
binding relative to P54AR4-83v2 parent [2]: 0.21 ratio
binding relative to P54AR4-83v2 parent [3]: 0 ratio

B5: P54AR4-83v2 G85C, NEM conjugate (designed binder, not shown: small tags and cut ends)
chain: B1 chain with C51G, G85C
modifications: N-ethyl maleimide (NEM) on Cys 85
binding relative to P54AR4-83v2 parent [1]: 0.02 ratio
binding relative to P54AR4-83v2 parent [2]: 0.29 ratio
binding relative to P54AR4-83v2 parent [3]: 0.19 ratio

B6: P54AR4-83v2 H75C, NEM conjugate (designed binder, not shown: small tags and cut ends)
chain: B1 chain with C51G, H75C
modifications: N-ethyl maleimide (NEM) on Cys 75
binding relative to P54AR4-83v2 parent [1]: 0.19 ratio
binding relative to P54AR4-83v2 parent [2]: 0.25 ratio
binding relative to P54AR4-83v2 parent [3]: 0.07 ratio

B7: P54AR4-83v2 I45C, NEM conjugate (designed binder, not shown: small tags and cut ends)
chain: B1 chain with I45C, C51G
modifications: N-ethyl maleimide (NEM) on Cys 45
binding relative to P54AR4-83v2 parent [1]: 1.04 ratio
binding relative to P54AR4-83v2 parent [2]: 0.93 ratio
binding relative to P54AR4-83v2 parent [3]: 0.91 ratio

B8: P54AR4-83v2 I91C, NEM conjugate (designed binder, not shown: small tags and cut ends)
chain: B1 chain with C51G, I91C
modifications: N-ethyl maleimide (NEM) on Cys 91
binding relative to P54AR4-83v2 parent [1]: 1.01 ratio
binding relative to P54AR4-83v2 parent [2]: 1 ratio
binding relative to P54AR4-83v2 parent [3]: 0.9 ratio

B9: P54AR4-83v2 K5C, NEM conjugate (designed binder, not shown: small tags and cut ends)
chain: B1 chain with K5C, C51G
modifications: N-ethyl maleimide (NEM) on Cys 5
notes: also called KSC
binding relative to P54AR4-83v2 parent [1]: 1.06 ratio
binding relative to P54AR4-83v2 parent [2]: 0.92 ratio
binding relative to P54AR4-83v2 parent [3]: 0.61 ratio

B10: P54AR4-83v2 K40C, NEM conjugate (designed binder, not shown: small tags and cut ends)
chain: B1 chain with K40C, C51G
modifications: N-ethyl maleimide (NEM) on Cys 40
binding relative to P54AR4-83v2 parent [1]: 0.95 ratio
binding relative to P54AR4-83v2 parent [2]: 0.86 ratio
binding relative to P54AR4-83v2 parent [3]: 0.88 ratio

B11: P54AR4-83v2 K62C, NEM conjugate (designed binder, not shown: small tags and cut ends)
chain: B1 chain with C51G, K62C
modifications: N-ethyl maleimide (NEM) on Cys 62
binding relative to P54AR4-83v2 parent [1]: 0.73 ratio
binding relative to P54AR4-83v2 parent [2]: 0.61 ratio
binding relative to P54AR4-83v2 parent [3]: 0.64 ratio

B12: P54AR4-83v2 K79C, NEM conjugate (designed binder, not shown: small tags and cut ends)
chain: B1 chain with C51G, K79C
modifications: N-ethyl maleimide (NEM) on Cys 79
binding relative to P54AR4-83v2 parent [1]: 0.99 ratio
binding relative to P54AR4-83v2 parent [2]: 0.93 ratio
binding relative to P54AR4-83v2 parent [3]: 0.9 ratio

B13: P54AR4-83v2 L7C, NEM conjugate (designed binder, not shown: small tags and cut ends)
chain: B1 chain with L7C, C51G
modifications: N-ethyl maleimide (NEM) on Cys 7
binding relative to P54AR4-83v2 parent [1]: 1 ratio
binding relative to P54AR4-83v2 parent [2]: 0.9 ratio
binding relative to P54AR4-83v2 parent [3]: 0.35 ratio

B14: P54AR4-83v2 L32C, NEM conjugate (designed binder, not shown: small tags and cut ends)
chain: B1 chain with L32C, C51G
modifications: N-ethyl maleimide (NEM) on Cys 32
binding relative to P54AR4-83v2 parent [1]: 1.01 ratio
binding relative to P54AR4-83v2 parent [2]: 0.91 ratio
binding relative to P54AR4-83v2 parent [3]: 0.87 ratio

B15: P54AR4-83v2 L47C, NEM conjugate (designed binder, not shown: small tags and cut ends)
chain: B1 chain with L47C, C51G
modifications: N-ethyl maleimide (NEM) on Cys 47
binding relative to P54AR4-83v2 parent [1]: 1.02 ratio
binding relative to P54AR4-83v2 parent [2]: 0.91 ratio
binding relative to P54AR4-83v2 parent [3]: 0.92 ratio

B16: P54AR4-83v2 L86C, NEM conjugate (designed binder, not shown: small tags and cut ends)
chain: B1 chain with C51G, L86C
modifications: N-ethyl maleimide (NEM) on Cys 86
binding relative to P54AR4-83v2 parent [1]: 0.96 ratio
binding relative to P54AR4-83v2 parent [2]: 0.92 ratio
binding relative to P54AR4-83v2 parent [3]: 0.77 ratio
